The record followed here is paper PMC5019495 (Nature, 2016).

Changes are numbered by the printed parent chain. Names may count otherwise. Where two headings read alike, the source gives them in different places.

Experiment [1] addresses T1, yeast E2 Ubc9 (wild type) (yeast, UniProt P50623 1-157).
T1 sequence (looked up): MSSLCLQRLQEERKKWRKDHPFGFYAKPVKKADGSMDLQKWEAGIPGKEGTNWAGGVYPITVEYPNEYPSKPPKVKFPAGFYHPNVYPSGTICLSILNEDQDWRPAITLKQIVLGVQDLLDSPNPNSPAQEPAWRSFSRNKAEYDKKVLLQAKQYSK
Briefly: fluorescence polarisation. In general terms: Fluorescence polarisation rises when a labelled molecule tumbles more slowly, as on binding a larger partner.

Experiment [2] addresses T2, yeast E3 active fragment Siz1^(167–465) (yeast, UniProt Q04195 167-465).
T2 sequence (looked up): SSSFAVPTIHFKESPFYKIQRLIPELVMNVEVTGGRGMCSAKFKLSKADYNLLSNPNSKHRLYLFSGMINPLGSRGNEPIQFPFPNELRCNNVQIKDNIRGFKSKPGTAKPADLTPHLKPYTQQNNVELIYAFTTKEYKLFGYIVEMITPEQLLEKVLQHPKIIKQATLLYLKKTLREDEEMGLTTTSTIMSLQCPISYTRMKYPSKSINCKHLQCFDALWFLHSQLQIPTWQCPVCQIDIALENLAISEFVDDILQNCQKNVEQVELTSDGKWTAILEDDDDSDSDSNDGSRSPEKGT
Kind of experiment: competitive inhibition of multiple turnover SUMO conjugation.

In experiment [3] the target is T2, yeast E3 active fragment Siz1^(167–465). Described as above. This is another data set of the same source.

B1: Smt3^K11C-Alexa488 (natural protein)
chain: SDSEVNQEACPEVKPEVKPETHINLKVSDGSSEIFFKIKKTTPLRRLMEAFAKRQGKEMDSLRFLYDGIRIQADQTPEDLDMEDNDIIEAHREQIGG
modifications: Alexa Fluor 488 maleimide on Cys11
For the molecule B1, the Kd in experiment [1] turned out to be 0.0246 µM.

B2: Ubc9^A129K/K153R-Smt3 thioester mimetic (complex)
chain 1: T1 sequence (looked up) with A129K, K153R
chain 2: B1 chain with C10K
modifications: Lys129 linked to the C-terminus of Smt3 | C-terminus linked to Lys129 of Ubc9
For the molecule B2, the Ki in experiment [2] was 4.33 µM; in experiment [3], 3.15 µM.

B3: Ubc9^C93K-Smt3 thioester mimetic (complex)
chain 1: T1 sequence (looked up) with C93K
chain 2: B1 chain with C10K
modifications: Lys93 linked to the C-terminus of Smt3 (stable peptide bond) | C-terminus linked to Lys93 of Ubc9
Consider B3, for which the Ki came out at 2.05 µM in experiment [2] and 1.44 µM in experiment [3].

In general, Kd refers to a measure of binding affinity in units of concentration. For orientation: Ki means the dissociation constant of the complex between target and ligand, obtained from inhibition or displacement. Lower therefore signals higher affinity.
